In patent US20240325486A1 (TUFTS MEDICAL CENTER, published 2024):
Non-standard residues stand in square brackets, D forms with d. No end group written: not given here. Tic = O=C(O)[C@@H]1Cc2ccccc2CN1

B1: C18:1 lipidated stable chemerin 9 analog (peptide)
peptide: [dY]FLP[dS]QF[dA][Tic]S
modifications: also: C18:1 lipid tail (which C18:1 acid not given here), linker and attachment not given here

molecular target: CMKLR1 (recombinant, species not given); assay: cell-based or functional assay

CMKLR1 canonical Gαi signal transduction, EC50 (BSA) (no wash) [µM]	CMKLR1 canonical Gαi signal transduction, EC50 (BSA) (wash × 3) [µM]	CMKLR1 canonical Gαi signal transduction, EC50 (no wash) [µM]	CMKLR1 canonical Gαi signal transduction, EC50 (wash × 3) [µM]	Binder
0.0295	3.14	0.012	0.0422	[dY]FLP[dS]QF[dA][Tic]S (also: C16:1 lipid tail, linker and attachment not given here) [C16:1 lipidated stable chemerin 9 analog]
0.0064	0.52	0.0027	0.0186	[dY]FLP[dS]QF[dA][Tic]S (also: C16 (palmitic acid) lipid tail, linker and attachment not given here) [C16 lipidated stable chemerin 9 analog]
0.108	13.5	0.0845	0.445	[dY]FLP[dS]QF[dA][Tic]S (also: cholesterol lipid tail, linker and attachment not given here) [Cholesterol lipidated stable chemerin 9 analog]
0.0127	2.86	0.0047	0.0264	B1
0.0733	–	0.0457	0.35	[dY]FLP[dS]QF[dA][Tic]S (also: C18:3 (linolenic acid) lipid tail, linker and attachment not given here) [C18:3 lipidated stable chemerin 9 analog]
0.0051	–	0.0352	–	[dY]FLP[dS]QF[dA][Tic]S [s-Stable Chem (soluble stable chemerin peptide)]
0.0262	1.82	0.0093	0.1	[dY]FLP[dS]QF[dA][Tic]S (also: C14:1 lipid tail, linker and attachment not given here) [C14:1 lipidated stable chemerin 9 analog]
0.011	–	0.0793	–	[dY]FLP[dS]QF[dA][Tic]S (also: C4 lipid tail, linker and attachment not given here) [C4 lipidated stable chemerin 9 analog]
0.0178	–	0.0178	–	[dY]FLP[dS]QF[dA][Tic]S (also: C10 lipid tail, linker and attachment not given here) [C10 lipidated stable chemerin 9 analog]

molecular target: CMKLR1 (recombinant, species not given); assay: cell-based or functional assay; remark: another data set of the same source

β-Arrestin recruitment, EC50 [µM]	β-Arrestin recruitment, Max Efficacy (% 10 µM s-Stable chem9) [%]	Binder
0.0808	154	[dY]FLP[dS]QF[dA][Tic]S (also: C16:1 lipid tail, linker and attachment not given here) [C16:1 lipidated stable chemerin 9 analog]
0.00323	165	[dY]FLP[dS]QF[dA][Tic]S (also: C16 (palmitic acid) lipid tail, linker and attachment not given here) [C16 lipidated stable chemerin 9 analog]
0.131	149	[dY]FLP[dS]QF[dA][Tic]S (also: cholesterol lipid tail, linker and attachment not given here) [Cholesterol lipidated stable chemerin 9 analog]
0.0174	160	B1
0.181	110	[dY]FLP[dS]QF[dA][Tic]S (also: C18:3 (linolenic acid) lipid tail, linker and attachment not given here) [C18:3 lipidated stable chemerin 9 analog]
0.0319	100	[dY]FLP[dS]QF[dA][Tic]S [s-Stable Chem (soluble stable chemerin peptide)]
0.0519	124	[dY]FLP[dS]QF[dA][Tic]S (also: C14:1 lipid tail, linker and attachment not given here) [C14:1 lipidated stable chemerin 9 analog]
0.223	89.7	[dY]FLP[dS]QF[dA][Tic]S (also: C4 lipid tail, linker and attachment not given here) [C4 lipidated stable chemerin 9 analog]
0.0231	98.3	[dY]FLP[dS]QF[dA][Tic]S (also: C10 lipid tail, linker and attachment not given here) [C10 lipidated stable chemerin 9 analog]
